Experimental data published in publication PMC7615117, “DNSN-1 recruits GINS for CMG helicase assembly during DNA replication initiation in C. elegans” (Science (New York, N.Y.), 2023).
Values belong to the binder of their own block, whether it stands above or below them.

Columns and labels:
Assay in all cases: cryo-EM structure; CMG (125 nM) with fork DNA, AMP-PNP, TIM-1/TIPN-1 and DNSN-1 isoform c (each 1.3-fold molar excess), GraFix gradient with glutaraldehyde and BS3
Settings in all cases: both partners purified
TIM-1 = target: T1, TIM-1 (C. elegans, UniProt G5EDN3 1-1353)
T1 construct: TIM-1, C. elegans; Chain of m13, written alone for its contacts in the structure; source: S. cerevisiae, purified as part of the TIM-1_TIPN-1 complex
T1 sequence: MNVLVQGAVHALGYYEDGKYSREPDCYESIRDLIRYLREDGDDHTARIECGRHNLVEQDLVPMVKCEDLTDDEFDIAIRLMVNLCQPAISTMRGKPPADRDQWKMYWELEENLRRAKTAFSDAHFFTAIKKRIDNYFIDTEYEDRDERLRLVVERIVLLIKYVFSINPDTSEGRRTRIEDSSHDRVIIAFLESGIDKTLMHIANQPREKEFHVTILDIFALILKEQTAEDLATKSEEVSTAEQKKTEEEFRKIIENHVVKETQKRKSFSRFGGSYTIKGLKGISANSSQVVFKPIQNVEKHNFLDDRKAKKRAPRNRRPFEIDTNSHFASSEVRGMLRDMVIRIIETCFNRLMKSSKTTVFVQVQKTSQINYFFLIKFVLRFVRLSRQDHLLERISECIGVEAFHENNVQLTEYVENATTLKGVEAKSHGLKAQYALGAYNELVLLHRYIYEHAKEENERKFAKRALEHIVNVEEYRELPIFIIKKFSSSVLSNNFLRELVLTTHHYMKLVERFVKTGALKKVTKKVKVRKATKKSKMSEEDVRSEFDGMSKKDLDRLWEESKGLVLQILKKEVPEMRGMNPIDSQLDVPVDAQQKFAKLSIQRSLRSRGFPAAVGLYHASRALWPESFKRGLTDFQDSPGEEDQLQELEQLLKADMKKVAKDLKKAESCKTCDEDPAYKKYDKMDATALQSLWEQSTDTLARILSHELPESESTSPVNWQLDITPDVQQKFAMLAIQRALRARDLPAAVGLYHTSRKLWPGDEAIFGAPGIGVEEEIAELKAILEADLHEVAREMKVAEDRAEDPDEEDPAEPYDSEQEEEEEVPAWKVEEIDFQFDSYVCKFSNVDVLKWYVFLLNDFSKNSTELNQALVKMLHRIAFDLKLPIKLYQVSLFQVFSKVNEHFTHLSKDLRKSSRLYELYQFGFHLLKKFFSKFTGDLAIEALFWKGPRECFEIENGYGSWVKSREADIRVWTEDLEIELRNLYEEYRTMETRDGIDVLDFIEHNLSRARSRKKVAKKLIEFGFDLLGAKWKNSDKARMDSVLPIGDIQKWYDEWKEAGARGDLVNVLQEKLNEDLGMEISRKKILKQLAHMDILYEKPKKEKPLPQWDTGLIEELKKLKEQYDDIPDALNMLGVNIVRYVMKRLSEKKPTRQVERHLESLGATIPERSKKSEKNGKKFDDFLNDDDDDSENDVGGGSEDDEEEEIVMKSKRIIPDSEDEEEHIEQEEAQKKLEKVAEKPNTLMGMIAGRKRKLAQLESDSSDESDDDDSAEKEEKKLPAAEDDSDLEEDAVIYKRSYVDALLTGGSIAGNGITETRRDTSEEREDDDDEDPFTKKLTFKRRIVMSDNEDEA

MCM-3 = target: T2, MCM-3 (C. elegans, UniProt Q9XVR7 1-812)
T2 construct: MCM-3, C. elegans; Subunit of m11, written alone for its contacts in the structure; also called MCM-3 subunit of MCM-2-7; source: S. cerevisiae, purified as part of recombinant CMG
T2 sequence: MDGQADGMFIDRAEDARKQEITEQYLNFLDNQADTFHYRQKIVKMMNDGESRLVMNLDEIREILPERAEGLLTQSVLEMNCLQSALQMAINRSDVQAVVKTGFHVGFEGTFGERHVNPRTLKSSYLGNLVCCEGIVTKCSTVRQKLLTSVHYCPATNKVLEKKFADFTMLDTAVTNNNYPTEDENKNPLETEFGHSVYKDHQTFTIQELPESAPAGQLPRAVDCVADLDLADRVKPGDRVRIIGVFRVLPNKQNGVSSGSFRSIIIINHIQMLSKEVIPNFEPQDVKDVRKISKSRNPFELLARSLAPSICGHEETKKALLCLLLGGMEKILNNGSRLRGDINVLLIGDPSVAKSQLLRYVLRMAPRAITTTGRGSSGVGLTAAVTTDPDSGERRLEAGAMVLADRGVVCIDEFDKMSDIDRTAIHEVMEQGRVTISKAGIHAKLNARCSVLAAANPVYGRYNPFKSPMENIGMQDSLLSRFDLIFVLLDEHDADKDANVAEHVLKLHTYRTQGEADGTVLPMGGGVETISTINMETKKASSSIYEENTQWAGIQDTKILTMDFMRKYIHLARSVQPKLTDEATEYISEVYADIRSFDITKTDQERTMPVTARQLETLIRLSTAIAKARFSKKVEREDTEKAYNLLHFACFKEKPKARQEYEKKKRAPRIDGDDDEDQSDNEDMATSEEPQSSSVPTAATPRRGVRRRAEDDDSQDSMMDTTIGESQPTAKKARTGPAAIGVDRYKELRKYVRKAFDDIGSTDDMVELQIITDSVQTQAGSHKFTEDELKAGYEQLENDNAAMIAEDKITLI

MCM-4 = target: T3, MCM-4 (C. elegans, UniProt Q95XQ8 1-823)
T3 construct: MCM-4, C. elegans; Subunit of m11, written alone for its interfaces in the structure; source: S. cerevisiae, purified as part of recombinant CMG
T3 sequence: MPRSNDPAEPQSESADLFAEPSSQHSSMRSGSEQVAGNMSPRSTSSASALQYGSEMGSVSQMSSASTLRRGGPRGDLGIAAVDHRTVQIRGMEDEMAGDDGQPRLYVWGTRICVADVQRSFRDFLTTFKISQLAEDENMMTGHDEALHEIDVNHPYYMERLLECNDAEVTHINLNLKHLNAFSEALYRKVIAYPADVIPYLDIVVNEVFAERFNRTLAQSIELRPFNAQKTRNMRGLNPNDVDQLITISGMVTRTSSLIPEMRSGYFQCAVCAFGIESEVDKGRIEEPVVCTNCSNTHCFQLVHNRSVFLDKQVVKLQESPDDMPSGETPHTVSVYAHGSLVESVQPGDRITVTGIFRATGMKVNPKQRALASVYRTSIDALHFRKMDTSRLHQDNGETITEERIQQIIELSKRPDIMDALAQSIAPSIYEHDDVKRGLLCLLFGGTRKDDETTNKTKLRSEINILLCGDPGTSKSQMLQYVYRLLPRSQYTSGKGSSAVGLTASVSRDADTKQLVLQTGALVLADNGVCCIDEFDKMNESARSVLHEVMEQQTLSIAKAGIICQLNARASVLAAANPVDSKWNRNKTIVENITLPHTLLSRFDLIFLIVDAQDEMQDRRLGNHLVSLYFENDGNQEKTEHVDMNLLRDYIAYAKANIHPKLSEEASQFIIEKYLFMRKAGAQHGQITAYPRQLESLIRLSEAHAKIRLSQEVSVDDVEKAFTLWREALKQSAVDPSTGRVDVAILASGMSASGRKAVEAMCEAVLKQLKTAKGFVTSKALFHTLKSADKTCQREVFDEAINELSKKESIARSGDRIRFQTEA

- binding result (TIM-1): binds
B1: MCM-2 (natural protein, C. elegans)
chain: MADRANNDDDVDRQPLPIADDADDDVDGIDEMFNNEDEDPEDEEGENLFGDDMERDYREQPELDQYSESGMDDASDVGSLSVSARRAAEREMAQRDQLLDDDALMYEDGDSEEVDTRRRGRGRRGRGDAADDDSVPMEEEDIPVDILENIRGRTIRDHVSDEAVAKEIERRFKNFLRSFHEPGNKQTKYIQMIKSMAADNRESLEVSFTDLSDDNGEQNISYFLPEAPNEMLAIMDRAATEVVMNMYPFYSRVCNEIKVRISQLPVEEDIRMLRQVHLNMLIRTAGVVTIASGILPQLAVVKYDCVACGYLLGPFVQQNDEEVRPTICPSCQGKGPFELNVENTVYHNYQRITMQESPNKVAAGRLPRSKDVILLGDLCDSCKPGDEIEVTGVYTNNFDGSLNYKQGFPVFNTLIHANHITNKDKMASDQLTDEDIKAIRELSQDPNISQRVFSSIAPSIYGHDDVKRAIALALFRGEAKNPGAKHRLRGDINVLLCGDPGTAKSQFLRYAAHIAPRSVLTTGQGASAVGLTAYVQRHPVTREWTLEAGAMVLADKGVCLIDEFDKMSDQDRTSIHEAMEQQSISISKAGIVTSLHARCTVIAASNPIGGRYNPTRTFAENVDLTEPILSRFDVLCVIRDSVDSVEDERLAKFVVGNHRTHHPDAKKIVKEGDELEEDQMDERTGVRLIPQDLLRKYIIYAREKCHPTLPEQHSEKFSNIFAQMRKESMATGSVAITVRHVESMIRLSEAHAKLHLRSYVNDEDCAAAIRVMLESFVNTQKASIMRMMKKTFSRHLTENRSANELLLFILKQLIRQQMHYATARAAAGTILQSVTIPESEFIEKAQQLRIENVKPFYTSEIFASNNFLYDPSKKTIVQEIF
notes: MCM-2, C. elegans; Subunit of m11, written alone for its contacts in the structure; source: S. cerevisiae, purified as part of recombinant CMG

- binding result (MCM-3): binds
B3: MCM-5 (natural protein, C. elegans)
chain: MSNLDNPGIYYQERFFANDGVPDTGRELIAEYRQLITQFRNFIRDFSTGGFGMIYRDQLKRNYFSHEYRLEINLNHLKNFDEDIEMKLRKFPGKVLPALEEAAKIVADEITTPRPKGEEKLHDIQVTLTLDEYPTSLRQVKSAQVSQVVKISGIIVAAAQVRSKATKVTLQCRQCKHTIPDVSIKPGLEGFALPRTCAAPQQGQMQRCPIDPYIMLPDKCECVDYQTLKLQENPEDVPHGEMPRHLQLFTERYLTDKVVPGNRVTIVGVYSIKKLIQKKGGDKSLQGIRTPYLRVLGIHMETSGPGRTNFTTFTPEEERMFKTLAQRKDAYELIAKSIAPSIYGSADIKKSIACLLFGGARKKLPDGITRRGDINVLLLGDPGTAKSQLLKFVEQVSPIGVYTSGKGSSAAGLTASVIRDPQSRSFIMEGGAMVLADGGVVCIDEFDKMREDDRVAIHEAMEQQTISIAKAGITTTLNSRCSVLAAANSVYGRWDESRGDDNIDFMPTILSRFDMIYIVKDTHDVLKDATLAKHVIEVHVNASAAKERDIAGVPKTATTDSDGVMTMFDTDGFLTIEFLKKFVTYARLNCGPRLTPQASEKLVNHYVKMRNPVVNADAFKSGKKAHNSAIPITVRQLEAIVRIAESIAKMELQQFATDKHVEEALRLFRVSTIEAAATGNLAGVEGFTSTADQEALNRIEVQMKKRFAIGTHVSEHLIVQDFVARQHYRESLVKKVIDNLVRRGDLQQKMQRKMLYRVR
notes: MCM-5, C. elegans; Subunit of m11, written alone for its interface in the structure; source: S. cerevisiae, purified as part of recombinant CMG

Continued, binder first:

B2: TIPN-1 (natural protein, C. elegans)
chain: MDEMEDFFENDELDREPSPMGDEAIEDNSGEGGTRRVVEPKLLRTKRLANPRLALNERILTGPKGISALRETLKDFKPNPKDDPYANLEKLMKKYAYWGHLMFPKMKTEDVLNRVETLGTRRQVKVFMIKHRLGETGEDSEHEEQENQKNGIIDDGASDNDDDLFKDLPEKEVTTEKAKNSEKSDQKTAEIDENVEEEYRMMEEERLREEQEAKEAADEDALMEDFGDMNNDW
notes: TIPN-1, C. elegans; Chain of m13, written alone; source: S. cerevisiae, purified as part of the TIM-1_TIPN-1 complex
- binding result (TIM-1): binds

B4: MCM-6 (natural protein, C. elegans)
chain: MDNIIGGQAQQVEDTDGTRVQNEFSKFLKSFKDQKNEFIYKSAMKELVQPEKNTIFINMQHLYKFSNNLATTIELQYYRVYPFMCEALHLATLDACDESERQQMFKKQLYVSLFNLDAKTKVRELSADKVGGLVRIAGQIVRTHPVHPELSRACFVCEDCGVTTRDVQQQFRYTQPTKCANPQCMNRTRFSLDVNSSTFVDFQKIRIQETQAELPRGSIPRTVDVIVRGEMVETVQPGDKCDIVGTLIVIPDIAQLSTPGLRAETSNQNRGRATDKSEGITGLKALGVRDLTYKMAFLACHIQQTESLVGGDASGAVEETDYLDLWSKMSTEDRATLKKMSDDKKIEKNIVDSLFPNIYGNHEVKLGVLLMLLGGVAKKSRDEGTSLRGDINVCLVGDPSTAKSQVLKAVEEFSPRAIYTSGKASSAAGLTAAVVKDEESFEFVIEAGALMLADNGVCCIDEFDKMDLKDQVAIHEAMEQQTISITKAGVKATLNARASILAAANPVNGRYDRSRPLKYNVQMSAPIMSRFDLFFVLVDECNEVTDYAIARRILDNHRAISEHTERDSVYKIDDIKKYIAFARCFKPKISDKAAETLVREYKKLRMSDSNNAATSSWRITVRQLESLVRLSEALARLHCGKEVLVEHVEKAAELLNKSIVRVEQPDIALDDDDFDNNIMVVEADKENQRGDDSMDHDGEKENAPKIDIAKLKISFKEYKQLSDVLVLHMRSDEDNQGEDEYDGVKQSALVEWYLSTIEADLETEEDFNVQKTICERVIHRLIHQDHVLLEVEQGEDPTLCVHPNYVIADE
notes: MCM-6, C. elegans; Subunit of m11, written alone for its interface in the structure; source: S. cerevisiae, purified as part of recombinant CMG
- binding result (MCM-4): binds
